In the supplement of paper PMC10724198 one finds protein stability index data, which are given here for 27 sequences.

In this series the test system is Saccharomyces cerevisiae. Kind of series: protein stability index of tFT-peptide fusion (C-terminal peptide) (PSI (0-1 scale)); higher = more stable (slower turnover). The following applies: temperature: 30 C. The procedure:
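MPS profiling in S. cerevisiae of the yeast C-terminome library: the last 12 aa of each annotated ORF are fused to the C-terminus of a sfGFP-mCherry timer, after a GGGS linker. Cells are FACS-sorted into 8 mCherry/sfGFP bins and deep-sequenced. PSI runs from 0 (unstable) to 1 (stable); wild type and das1Δ backgrounds, two technical replicates each.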

Where [1] appears, read: genetic background: das1 deletion.

± gives the standard deviation of the averaged measurements.

Consider ELKINNDGRLVN [SEC66 C-terminal 12 aa], for which the protein stability index is, setting by setting: under setting [1], 0.7137 ± 0.0053; (genetic background: wild type) 0.714 ± 0.074.
The corresponding values for ELKKRFDALRRK [IST1 C-terminal 12 aa] are 0.686 ± 0.015 and 0.647 ± 0.0071.
The corresponding values for ELLRIHNSHLRN [FOL3 C-terminal 12 aa] are 0.715 ± 0.031 and 0.709 ± 0.042.
The matching figures for ELWYKSFGPHDE [APC1 C-terminal 12 aa]: 0.7 ± 0.027 and 0.7187 ± 0.0068.
Take ENWIHVSCLSFM [LIN1 C-terminal 12 aa]: the protein stability index came to 0.6634 ± 0.0048 under setting [1] and 0.6503 ± 0.0039 (genetic background: wild type).
Sequence EQITSSLQEASE [FSH1 C-terminal 12 aa] displayed a protein stability index under setting [1] of 0.67 ± 0.016 and a protein stability index (genetic background: wild type) of 0.656 ± 0.0082.
The matching figures for EQNFHFQFPPTN [IOC2 C-terminal 12 aa]: 0.7147 ± 0.0049 and 0.729 ± 0.021.
As to ERDTTTKPSKRR [KEL3 C-terminal 12 aa], the protein stability index reads like this: under setting [1], 0.7092 ± 0.0049; (genetic background: wild type) 0.698 ± 0.013.
The matching figures for ERNPTQRPQRRY [RPS10A C-terminal 12 aa]: 0.728 ± 0.036 and 0.679 ± 0.036.
The matching figures for ERPIVASTSPIA [TPH3 C-terminal 12 aa]: 0.71247 ± 4.2e-05 and 0.681 ± 0.0089.
On to ERWVRMGELMHY [YBR184W C-terminal 12 aa], for which the protein stability index came to 0.686 ± 0.018 under setting [1] and 0.538 ± 0.058 (genetic background: wild type).
The corresponding values for ERYTSIESEIVV [APE4 C-terminal 12 aa] are 0.6735 ± 0.0063 and 0.673 ± 0.023.
The corresponding values for ESKDDDDDDDWE [DOS2 C-terminal 12 aa] are 0.709 ± 0.038 and 0.648 ± 0.0095.
The corresponding values for ESRLFISDGAVF [MON1 C-terminal 12 aa] are 0.696 ± 0.0082 and 0.713 ± 0.041.
In the case of ESSSPSQLQHEA [PHO84 C-terminal 12 aa], the protein stability index runs as follows: under setting [1], 0.6938 ± 0.006; (genetic background: wild type) 0.682 ± 0.024.
The matching figures for ESTGHVDFGQNR [OTU1 C-terminal 12 aa]: 0.7 ± 0.012 and 0.703 ± 0.012.
The corresponding values for ETAENIAKYIRN [NPA3 C-terminal 12 aa] are 0.682 ± 0.024 and 0.661 ± 0.035.
The matching figures for ETMVRIRVDGNE [DAD2 C-terminal 12 aa]: 0.665 ± 0.027 and 0.676 ± 0.025.
Regarding EVDDDGEIDGLF [ADE3 C-terminal 12 aa], the protein stability index under setting [1] came to 0.7153 ± 0.0044 and the protein stability index (genetic background: wild type) came to 0.692 ± 0.021.
Consider “EVPGWQEYYDKL [YOR133W; YDR385W C-terminal 12 aa]”, for which the protein stability index was determined as 0.72 ± 0.018 under setting [1] and 0.71 ± 0.016 (genetic background: wild type).
The matching figures for EVTSLYTNASNA [DPC29 C-terminal 12 aa]: 0.715 ± 0.011 and 0.703 ± 0.049.
On to EYNLDTFIKTLR [MOT1 C-terminal 12 aa], for which the protein stability index came out at 0.7535 ± 0.0064 under setting [1] and 0.6883 ± 0.0023 (genetic background: wild type).
On to FAKLAAIPCSNA [YMR265C C-terminal 12 aa], for which the protein stability index by setting is: under setting [1], 0.553 ± 0.0059; (genetic background: wild type) 0.5659 ± 0.0046.
The matching figures for FEHFHCVLDQIL [YDR203W C-terminal 12 aa]: 0.7056 ± 0.0043 and 0.6954 ± 0.0031.
The corresponding values for FFFATQRDLKRT [YDR431W C-terminal 12 aa] are 0.715 ± 0.05 and 0.733 ± 0.019.
The corresponding values for FFMSDMNLSKEG [ATG13 C-terminal 12 aa] are 0.752 ± 0.016 and 0.654 ± 0.048.
For the sequence “FFPFITIIFFHS [YCR024C-B C-terminal 12 aa]”, the protein stability index reads like this: under setting [1], 0.324 ± 0.026; (genetic background: wild type) 0.299 ± 0.01.
